From patent publication US20160052997A1 (CELLTRION, published 2016) come the findings set out here.

“And” between values parts separate entries of the source, which are not always exact repeats. Equal values may be shown once. Read-outs that look alike come from different tables or passages of the source.

In assay [1] the target is T1, purified recombinant HA protein of H1N1 (A/California/04/09) (Influenza A virus A/California/04/09 …, UniProt P26140 18-529). Description: SPR, Biacore T200, HA captured via anti-6x his tag antibody, 25 C.
Assay [2] has as its target T1, purified recombinant HA protein of H1N1 ….

B1: CT149 (antibody, V domains shown)
VH: QVQLVQSGAEVKKPGASVKVSCKTSGYSFSTYGVSWVRQAPGQGPEWVGWISAYTGITDYAQKFQGRVTLTTDATTATAFLDLRSLRPDDTATYFCARDKVQGRVEVGSGGRHDYWGQGTLVIVSS
VL: EVVLTQSPGTLALPPGERATLSCRASHRVGSTYIAWYQQKSGQAPRRLIYGASNRATDIPDRFSGSGSGTDFTLTIRRLEPEDSAVYYCQQFSVSPWTFGQGTRVEIKR
For orientation: Kd means a measure of binding affinity in units of concentration. One may read the koff as the rate constant with which the complex falls apart. The term kon denotes the second-order rate constant of association. As for B1, in assay [1], the Kd was 30.2 nM and 31 nM; the koff is 0.0388 s⁻¹ and 0.0399 s⁻¹; the kon turned out to be 1.29e+06 M⁻¹ s⁻¹. The Kd in assay [2] was 30.6 nM.
